Biological target: T1, GAL4 DNA binding domain (UniProt P04386 1-147)
T1 construct: Residues read through from the cloning site are not described; also called BD
Test: yeast two-hybrid, growth on SD/-Trp/-Leu/-Ade/-His; empty vector

T1 sequence (P04386 1-147 limits assumed): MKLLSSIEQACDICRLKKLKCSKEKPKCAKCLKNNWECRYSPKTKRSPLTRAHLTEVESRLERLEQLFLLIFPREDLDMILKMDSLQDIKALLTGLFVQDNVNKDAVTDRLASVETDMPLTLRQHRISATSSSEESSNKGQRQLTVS

B1: GAL4 activation domain (other, UniProt P04386 768-881, looked up)
chain: ANFNQSGNIADSSLSFTFTNSSNGPNLITTQTNSQALSQPIASSNVHDNFMNNEITASKIDDGNNSKPLSPGWTDQTAYNAFGITTGMFNTTTMDDVYNYLFDDEDTPPNPKKE
notes: Residues read through from the cloning site are not described; also called AD
  binding result: no binding

— US20250388893A1 (HUAZHONG AGRICULTURAL UNIVERSITY, published 2025)
